Earlier results, collected in article PMC3174036.

Target: VEGFR-2 D7 D7 (Homo sapiens) (UniProt P35968)

Kd: 100 µM
Substance: VEGFR-2 D7 D7 (from UniProt P35968)
